# Columns and labels:
# [1] = molecular target: T1, Human IL-17A (human, UniProt Q16552 20-155, limits assumed); test: ELISA, captured DVD-Ig, biotin-human IL-17 titrated
# T1 construct: Biotinylated in the ELISAs; purified recombinant protein in SPR; also called hIL17A; hIL-17
# Summary of the method: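 Plate coated with goat anti-mouse IgG-Fc, then antibody captured at 1 μg/ml; serially diluted biotinylated human TNF or IL-17 added 1 h at RT. Bound ligand detected with streptavidin-HRP and TMB, absorbance at 450 nm.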
# [2] = molecular target: T2, Cynomolgus monkey IL-17A (cynomolgus monkey, UniProt A0A2K5TTB0 24-155); test: SPR (Biacore T200), DVD-Ig captured by anti-human IgG Fc, antigen in solution
# T2 construct: also called Cyno IL-17AA; Cyno IL17AA
# T2 sequence (A0A2K5TTB0 entry or part of it): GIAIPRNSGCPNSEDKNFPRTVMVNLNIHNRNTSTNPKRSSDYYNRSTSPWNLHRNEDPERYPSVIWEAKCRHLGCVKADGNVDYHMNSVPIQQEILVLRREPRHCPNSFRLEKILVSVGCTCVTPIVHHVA
# Experimental: (§1) The binding of antibodies to purified recombinant IL-17 and TNFα proteins were determined by surface plasmon resonance-based measurements with a Biacore® T200 instrument (GE Healthcare) using running HBS-EP (10 mM HEPES [pH 7.4], 150 mM NaCl, 3 mM EDTA, and 0.005% surfactant P20) containing 0.1 mg/ml BSA at 25° C. All chemicals were obtained from Biacore® AB (GE Healthcare) or otherwise from a different source as described in the text. Approximately 5000 RU of goat anti-human IgG (Fcγ) fragment specific polyclonal antibody (Pierce Biotechnology Inc, Rockford, Ill.) diluted in 10 mM sodium acetate (pH 4.5) was directly immobilized across a CM5 research grade biosensor chip using a standard amine coupling kit according to manufacturer's instructions and procedures at 25 ug/ml. Unreacted moieties on the biosensor surface were blocked with ethanolamine. Modified carboxymethyl dextran surface in flowcell 2, 3 and 4 were used as a reaction surface. Modified carboxymethyl dextran with goat IgG in flow cell 1 was used as the reference surface. For kinetic analysis, rate equations derived from the 1:1 Langmuir binding model were fitted simultaneously to association and dissociation phases of all six injections (using global fit analysis with local float for Rmax) with the use of Biacore T200 Evaluation software v.1.0. Purified antibodies were diluted in HEPES-buffered saline for capture across goat anti-human IgG specific reaction surfaces. Antibodies to be captured as ligand (1-5 μg/ml) were injected over reaction matrices at a flow rate of 50 μl/minute. Association phase was monitored for 5 minutes, while dissociation phase was monitored for 10-60 minutes to accommodate for slower off-rates. The association and dissociation rate constants, ka (unit M-1 s-1) and kd (unit s-1) were determined under a continuous flow rate of 50 μl/minute. Rate constants were derived by making kinetic binding measurements at six different antigen concentrations ranging from 0.78 nM to 100 nM, depending on the species of IL-17 or TNFα tested. The association ka, dissociation rate kd and equilibrium dissociation constant KD were calculated with the use of the same Biacore T200 Evaluation software v.1.0.
# [3] = molecular target: T3, Rhesus TNFa (rhesus, UniProt P48094 77-233); test: as above
# T3 construct: also called Rhesus TNF-alpha
# T3 sequence (P48094 77-233 limits assumed): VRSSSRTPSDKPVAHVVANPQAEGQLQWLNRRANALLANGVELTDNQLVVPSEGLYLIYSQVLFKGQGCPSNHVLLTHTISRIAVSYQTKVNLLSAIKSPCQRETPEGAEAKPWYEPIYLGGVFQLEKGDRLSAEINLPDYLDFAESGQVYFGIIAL
# Experimental: as §1
# [4] = molecular target: T1, Human IL-17A; test: as above
# Experimental: as §1
# [5] = molecular target: T4, Human TNF (human, UniProt P01375 77-233); test: as above
# T4 construct: Biotinylated in the ELISA; purified recombinant protein in SPR; also called h TNF; huTNF
# T4 sequence (P01375 77-233 limits assumed): as the sequence (P48094 77-233 limits assumed) above, with T44R, N72T, L138R counted along it
# Experimental: as §1
# [6] = molecular target: T4, Human TNF; test: cell-based or functional assay
# [7] = molecular target: T4, Human TNF; test: ELISA, captured DVD-Ig, biotin-human TNF titrated
# Experimental: The following protocol is used to characterize the binding of TNF/IL-17 DVD-Ig proteins to human TNF and IL-17 by enzyme-linked immunosorbent assay (ELISA). An ELISA plate was coated with 50 μl per well of goat anti mouse IgG-Fc at 2 μg/ml, overnight at 4° C. The plate was washed 3 times with PBS/Tween. 50 μl Mab diluted to 1 μg/ml in PBS/0.1% BSA was added to appropriate wells and incubated for 1 hour at room temperature (RT). The plate was washed 3 times with PBS/Tween. 50 μl of serial diluted biotin-human TNF or IL-17 was added to appropriate wells and incubated for 1 hour at RT. The plate was washed 3 times with PBS/Tween. 50 μl of streptavidin-HRP diluted 1:10,000 in PBS/0.1% BSA was added to appropriate wells and incubated for 1 hour at RT. The plate was washed 3 times with PBS/Tween. 50 μl of TMB was added to appropriate wells and the reaction allowed to proceed for 1 minute. The reaction was stopped with 50 μl/well 2N H₂SO₄ and the absorbance read at 450 nm.
# T1 sequence (Q16552 20-155 limits assumed): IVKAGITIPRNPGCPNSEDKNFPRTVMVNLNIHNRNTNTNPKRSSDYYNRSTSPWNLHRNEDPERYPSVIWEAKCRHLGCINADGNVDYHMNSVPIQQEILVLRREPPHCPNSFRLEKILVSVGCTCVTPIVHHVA
binder,measurement,setting,value
"hMAK199-1-h10F7-M11.8 DVD-Ig (bispecific antibody, human IgG1, kappa, L234A L235A, DVD-Ig; IgG1 234,235 mut, kappa; GS10 linkers; also called HMAK199-1-GS10-H10F7-M11 DVD) heavy: not shown light: DIQMTQSPSSLSASVGDRVTITCRASQDISQYLNWYQQKPGKAPKLLIYYTSRLQSGVPSRFSGSGSGTDFTLTISSLQPEDFATYFCQQGNTWPPTFGQGTKLEIKRGGSGGGGSGDIQMTQSPSSLSASVGDRVTITCRASSGIISYIDWFQQKPGKAPKRLIYATFDLASGVPSRFSGSGSGTDYTLTISSLQPEDFATYYCRQVGSYPETFGQGTKLEIKRTVAAPSVFIFPPSDEQLKSGTASVVCLLNNFYPREAKVQWKVDNALQSGNSQESVTEQDSKDSTYSLSSTLTLSKADYEKHKVYACEVTHQGLSSPVTKSFNRGEC",EC50,[1],0.078 nM
same,Kd,[2],7.22 pM
same,koff,[2],2.15e-06 s⁻¹
same,kon,[2],299000 M⁻¹ s⁻¹
same,Kd,[3],0.0108 nM
same,koff,[3],2.39e-05 s⁻¹
same,kon,[3],2.21e+06 M⁻¹ s⁻¹
same,Kd,[4],0.0337 nM
same,koff,[4],1.11e-05 s⁻¹
same,kon,[4],329000 M⁻¹ s⁻¹
same,Kd,[5],5.5 pM
same,koff,[5],2.37e-05 s⁻¹
same,kon,[5],4.31e+06 M⁻¹ s⁻¹
same,"Potency IC50 (nM), L929 bioassay, human TNF",[6],0.031 nM
same,EC50,[7],0.22 nM
"hMAK199-1-h10F7-M11.8 YTE DVD-Ig (bispecific antibody, human IgG1, kappa, L234A L235A, DVD-Ig; IgG1 (234,235) mut with YTE mutations, kappa; GS10 linkers) heavy: EVQLVQSGAEVKKPGASVKVSCKASGYTFANYGIIWVRQAPGQGLEWMGWINTYTGKPTYAQKFQGRVTMTTDTSTSTAYMELSSLRSEDTAVYYCARKLFTTMDVTDNAMDYWGQGTTVTVSSGGGGSGGGGSEVQLVQSGAEVKKPGSSVKVSCKASGYTFTDYEIHWVRQAPGQGLEWMGVNDPESGGTFYNQKFDGRVTLTADESTSTAYMELSSLRSEDTAVYYCTRYSKWDSFDGMDYWGQGTTVTVSSASTKGPSVFPLAPSSKSTSGGTAALGCLVKDYFPEPVTVSWNSGALTSGVHTFPAVLQSSGLYSLSSVVTVPSSSLGTQTYICNVNHKPSNTKVDKKVEPKSCDKTHTCPPCPAPEAAGGPSVFLFPPKPKDTLYITREPEVTCVVVDVSHEDPEVKFNWYVDGVEVHNAKTKPREEQYNSTYRVVSVLTVLHQDWLNGKEYKCKVSNKALPAPIEKTISKAKGQPREPQVYTLPPSREEMTKNQVSLTCLVKGFYPSDIAVEWESNGQPENNYKTTPPVLDSDGSFFLYSKLTVDKSRWQQGNVFSCSVMHEALHNHYTQKSLSLSPGK light: DIQMTQSPSSLSASVGDRVTITCRASQDISQYLNWYQQKPGKAPKLLIYYTSRLQSGVPSRFSGSGSGTDFTLTISSLQPEDFATYFCQQGNTWPPTFGQGTKLEIKRGGSGGGGSGDIQMTQSPSSLSASVGDRVTITCRASSGIISYIDWFQQKPGKAPKRLIYATFDLASGVPSRFSGSGSGTDYTLTISSLQPEDFATYYCRQVGSYPETFGQGTKLEIKRTVAAPSVFIFPPSDEQLKSGTASVVCLLNNFYPREAKVQWKVDNALQSGNSQESVTEQDSKDSTYSLSSTLTLSKADYEKHKVYACEVTHQGLSSPVTKSFNRGEC",EC50,[1],0.05 nM
same,EC50,[7],0.1 nM
"hMAK199-1-h10F7-M11.8 QL DVD-Ig (bispecific antibody, human IgG1, kappa, L234A L235A, DVD-Ig; IgG1 (234,235) mut with QL mutations, kappa; GS10 linkers) heavy: EVQLVQSGAEVKKPGASVKVSCKASGYTFANYGIIWVRQAPGQGLEWMGWINTYTGKPTYAQKFQGRVTMTTDTSTSTAYMELSSLRSEDTAVYYCARKLFTTMDVTDNAMDYWGQGTTVTVSSGGGGSGGGGSEVQLVQSGAEVKKPGSSVKVSCKASGYTFTDYEIHWVRQAPGQGLEWMGVNDPESGGTFYNQKFDGRVTLTADESTSTAYMELSSLRSEDTAVYYCTRYSKWDSFDGMDYWGQGTTVTVSSASTKGPSVFPLAPSSKSTSGGTAALGCLVKDYFPEPVTVSWNSGALTSGVHTFPAVLQSSGLYSLSSVVTVPSSSLGTQTYICNVNHKPSNTKVDKKVEPKSCDKTHTCPPCPAPEAAGGPSVFLFPPKPKDQLMISRTPEVTCVVVDVSHEDPEVKFNWYVDGVEVHNAKTKPREEQYNSTYRVVSVLTVLHQDWLNGKEYKCKVSNKALPAPIEKTISKAKGQPREPQVYTLPPSREEMTKNQVSLTCLVKGFYPSDIAVEWESNGQPENNYKTTPPVLDSDGSFFLYSKLTVDKSRWQQGNVFSCSVLHEALHNHYTQKSLSLSPGK light: DIQMTQSPSSLSASVGDRVTITCRASQDISQYLNWYQQKPGKAPKLLIYYTSRLQSGVPSRFSGSGSGTDFTLTISSLQPEDFATYFCQQGNTWPPTFGQGTKLEIKRGGSGGGGSGDIQMTQSPSSLSASVGDRVTITCRASSGIISYIDWFQQKPGKAPKRLIYATFDLASGVPSRFSGSGSGTDYTLTISSLQPEDFATYYCRQVGSYPETFGQGTKLEIKRTVAAPSVFIFPPSDEQLKSGTASVVCLLNNFYPREAKVQWKVDNALQSGNSQESVTEQDSKDSTYSLSSTLTLSKADYEKHKVYACEVTHQGLSSPVTKSFNRGEC",EC50,[1],0.142 nM
same,Kd,[4],< 0.00452 nM
same,koff,[4],< 1e-06 s⁻¹
same,kon,[4],221000 M⁻¹ s⁻¹
same,"Potency IC50 (nM), L929 bioassay, human TNF",[6],0.027 nM
same,EC50,[7],0.119 nM
"h10F7-M10-hMAk195-24.8 DVD-Ig (bispecific antibody, human IgG1, kappa, L234A L235A) heavy: not shown light: DIQMTQSPSSLSASVGDRVTITCSASSGSISYIDWFQQKPGKAPKRLIYATFELASGVPSRFSGSGSGTDFTLTISSLQPEDFATYYCHQLGSYPDTFGQGTKLEIKRGGSGGGGSGDIQMTQSPSSLSASVGDRVTITCKASQLVSSAVAWYQQKPGKAPKLLIYWASTLHTGVPSRFSGSGSGTDFTLTISSLQPEDFATYYCQQHYRTPFTFGQGTKLEIKRTVAAPSVFIFPPSDEQLKSGTASVVCLLNNFYPREAKVQWKVDNALQSGNSQESVTEQDSKDSTYSLSSTLTLSKADYEKHKVYACEVTHQGLSSPVTKSFNRGEC","Potency IC50 (nM), L929 bioassay, human TNF",[6],2.56 nM

# Reference: US20140161804A1 (AbbVie / Abbott, published 2014)
